The source of these data is patent publication US20180011102A1 (University of Texas, published 2018).

T1: SFB-PGK1 Δ1-57 (human, UniProt P00558 58-417)
T1 construct: also called PGK1 Δ1-57 mutant; not shown: C-terminal SFB (S-Flag-Biotin) tag and any linker or added start Met of the pcDNA6/SFB construct
T1 sequence: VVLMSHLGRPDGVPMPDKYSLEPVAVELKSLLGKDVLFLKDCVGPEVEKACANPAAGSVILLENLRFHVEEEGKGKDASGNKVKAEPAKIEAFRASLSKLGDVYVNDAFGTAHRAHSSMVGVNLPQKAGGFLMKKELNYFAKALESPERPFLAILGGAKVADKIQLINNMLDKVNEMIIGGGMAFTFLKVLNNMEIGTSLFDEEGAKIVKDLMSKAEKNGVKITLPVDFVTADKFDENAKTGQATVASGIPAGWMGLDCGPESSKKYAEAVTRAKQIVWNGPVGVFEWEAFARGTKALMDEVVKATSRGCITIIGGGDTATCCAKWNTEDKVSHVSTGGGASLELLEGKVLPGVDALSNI

T2: SFB-PGK1 R39/K41A (human, UniProt P00558 1-417)
T2 construct: not shown: SFB (S-Flag-Biotin) tag, pcDNA6/SFB vector
T2 sequence (looked up): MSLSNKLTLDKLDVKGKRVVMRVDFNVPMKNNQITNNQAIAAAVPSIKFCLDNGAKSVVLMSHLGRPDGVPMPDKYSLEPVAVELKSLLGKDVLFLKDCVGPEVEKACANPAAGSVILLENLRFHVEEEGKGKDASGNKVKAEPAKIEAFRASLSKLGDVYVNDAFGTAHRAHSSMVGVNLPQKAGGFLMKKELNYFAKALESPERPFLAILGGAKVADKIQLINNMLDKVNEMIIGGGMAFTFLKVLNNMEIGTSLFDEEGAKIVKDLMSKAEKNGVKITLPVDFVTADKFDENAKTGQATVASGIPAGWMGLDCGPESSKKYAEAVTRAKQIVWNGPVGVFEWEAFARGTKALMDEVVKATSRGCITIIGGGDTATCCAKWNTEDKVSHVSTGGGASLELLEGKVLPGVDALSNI

B1: endogenous TOM20 of U87 cells (receptor, human, UniProt Q15388 1-145, looked up)
chain: MVGRNSAIAAGVCGALFIGYCIYFDRKRRSDPNFKNRLRERRKKQKLAKERAGLSKLPDLKDAEAVQKFFLEEIQLGEELLAQGEYEKGVDHLTNAIAVCGQPQQLLQVLQQTLPPPVFQMLLTKLPTISQRIVSAQSLAEDDVE
B2: endogenous PGK1 (phosphoglycerate kinase 1) of U87 human GBM cells (enzyme)
chain: SLSNKLTLDKLDVKGKRVVMRVDFNVPMKNNQITNNQRIKAAVPSIKFCLDNGAKSVVLMSHLGRPDGVPMPDKYSLEPVAVELKSLLGKDVLFLKDCVGPEVEKACANPAAGSVILLENLRFHVEEEGKGKDASGNKVKAEPAKIEAFRASLSKLGDVYVNDAFGTAHRAHSSMVGVNLPQKAGGFLMKKELNYFAKALESPERPFLAILGGAKVADKIQLINNMLDKVNEMIIGGGMAFTFLKVLNNMEIGTSLFDEEGAKIVKDLMSKAEKNGVKITLPVDFVTADKFDENAKTGQATVASGIPAGWMGLDCGPESSKKYAEAVTRAKQIVWNGPVGVFEWEAFARGTKALMDEVVKATSRGCITIIGGGDTATCCAKWNTEDKVSHVSTGGGASLELLEGKVLPGVDALSNI
notes: Endogenous protein from cell lysates
B3: SFB-PDHK3 expressed in U87 cells (enzyme)
chain: not shown
notes: not shown: SFB tag, pcDNA6/SFB vector
B4: SFB-PDHK4 expressed in U87 cells (enzyme)
chain: not shown
notes: as for B3
B5: endogenous PDHK1 of U87 cell mitochondria (enzyme)
chain: not shown
notes: also called pyruvate dehydrogenase kinase 1

The target in one assay is T1, SFB-PGK1 Δ1-57. In words: streptavidin pull-down from U87 cells (FIG. 3D).
The target of a further assay is T2, SFB-PGK1 R39/K41A. The experiment in a line: streptavidin pull-down from U87 cells (FIG. 3E).
Assay [1] deals with SFB-PDHK2 expressed in U87 cells (human, UniProt Q15119 1-407). In words: streptavidin pull-down from mitochondrial fractions of U87 cells (FIG. 14C).
Experimental: (§1) Immunoblotting analyses were performed with the indicated antibodies. […] Immunoblotting analyses were performed with the indicated antibodies. […] Immunoblotting analyses were performed with the indicated antibodies. […] ATP concentrations in mitoplast isolated from U87 or U251 cells treated with or without hypoxia for 6 h were measured. […] Mitochondria fractions of U87 cells treated with or without hypoxia for 6 h were immunodepleted with or without an anti-PDHK1 pT338 antibody. Immunoblotting analyses were performed with the indicated antibodies. […] U87 and U251 cells expressing PGK1 shRNA were reconstituted to express WT rPGK1 or rPGK1 T378P. Immunoblotting analyses were performed with the indicated antibodies. FIGS. 14M-N. U87 and U251 cells with PGK1 shRNA and with reconstituted expression of WT rPGK1 or rPGK1 T378P were stimulated with or without hypoxia for 6 h. Mitochondria fractions were prepared. Immunoblotting analyses were performed with the indicated antibodies. […] Data represent the means±SD of three independent experiments. Immunoblotting analyses were performed with an anti-PGK1 antibody. […] U87 cells were stimulated with or without hypoxia for 6 h. Immunoblotting analyses of mitochondrial lysates were performed with the indicated antibodies.
Assay [2] has as its target B2. The assay is described as above.
Experimental: as §1
Assay [3] has as its target B2. In words: PGK1 immunoprecipitated from mitochondria of U87 cells, anti-PDHK1 immunoblot (FIG. 4B). (In general: Immunoblotting shows a protein as a band on a membrane.)

Experimental for SFB-PGK1 R39/K41A: (§2) FIGS. 3A-G. Immunoblotting and immunoprecipitation analyses were carried out using antibodies against the indicated proteins. […] FIGS. 3D-E. U87 cells expressing the indicated SFB-tagged PGK1 proteins were treated with or without hypoxia for 6 h. Streptavidin agarose beads were used to pull down SFB-tagged proteins.
Experimental for SFB-PGK1 Δ1-57: as §2

As to B1, the binding result with SFB-PGK1 Δ1-57 and in the assay with SFB-PGK1 R39/K41A was “no binding” throughout.
As for B2, the binding result in assay [1] is reported as “no binding”.
Regarding B3, the binding result in assay [2] was “no binding”.
The same measure, in the same setting: with B4 the entry was “no binding”.
B5: the binding result in assay [3] is “binds”.
